This note sets out measurements from PMC3585155, “CELF Family RNA–Binding Protein UNC-75 Regulates Two Sets of Mutually Exclusive Exons of the unc-32 Gene in Neuron-Specific Manners in Caenorhabditis elegans”.

Among the targets are UNC-75(1-114) RRM1 (Caenorhabditis elegans, UniProt G5EE68 1-114); UNC-75(121-213) RRM2 (Caenorhabditis elegans, UniProt G5EE68 121-213); UNC-75 (Caenorhabditis elegans, UniProt G5EE68 1-514); UNC-75(417-514) RRM3 (Caenorhabditis elegans, UniProt G5EE68 417-514); UNC-75(L431F) (Caenorhabditis elegans, UniProt G5EE68 1-514, L431F).
Experiment in all cases: EMSA; EMSA as described previously (ref 55); buffer, salt, pH and temperature not given
What all share (conditions): protein: recombinant; tags: FLAG; label: 32P

The target of the next series is T1, FOX-1 (Caenorhabditis elegans, UniProt Q10572 1-429).
T1 sequence: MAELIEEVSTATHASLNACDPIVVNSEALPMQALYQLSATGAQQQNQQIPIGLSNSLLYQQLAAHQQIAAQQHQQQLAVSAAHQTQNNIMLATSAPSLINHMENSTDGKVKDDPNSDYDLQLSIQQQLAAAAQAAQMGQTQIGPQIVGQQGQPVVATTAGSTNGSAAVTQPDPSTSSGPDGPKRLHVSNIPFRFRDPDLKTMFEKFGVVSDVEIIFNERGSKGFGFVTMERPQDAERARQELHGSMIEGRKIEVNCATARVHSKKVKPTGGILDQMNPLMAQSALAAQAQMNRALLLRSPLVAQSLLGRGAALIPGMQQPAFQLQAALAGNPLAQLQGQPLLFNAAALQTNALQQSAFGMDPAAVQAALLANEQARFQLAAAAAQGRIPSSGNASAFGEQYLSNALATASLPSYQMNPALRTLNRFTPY

The next series concerns the target T2, ASD-1 (Caenorhabditis elegans, UniProt G5EEW7 1-404).
T2 sequence: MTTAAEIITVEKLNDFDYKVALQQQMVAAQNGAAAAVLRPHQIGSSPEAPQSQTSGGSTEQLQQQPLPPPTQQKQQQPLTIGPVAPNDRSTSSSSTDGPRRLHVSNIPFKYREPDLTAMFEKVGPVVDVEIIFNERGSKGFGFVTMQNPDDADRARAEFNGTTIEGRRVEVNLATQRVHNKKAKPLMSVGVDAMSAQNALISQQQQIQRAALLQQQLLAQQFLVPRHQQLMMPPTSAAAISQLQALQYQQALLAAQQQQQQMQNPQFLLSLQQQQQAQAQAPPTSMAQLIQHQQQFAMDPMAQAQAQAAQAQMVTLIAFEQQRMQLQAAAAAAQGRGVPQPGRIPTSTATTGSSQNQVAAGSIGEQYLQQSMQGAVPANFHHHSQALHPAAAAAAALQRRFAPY

Regarding GGGAGAGGUGAUGGGUAGUUUUUGCAUGAUUGU (ssRNA) [intron 7b WT probe], the binding result in the series with FOX-1 and with ASD-1 was “binds” each time.

B1: Probe 2-1-1 (also printed 2-2-1) (ssRNA)
RNA: GGGAGAUUAGCACGCACCCGCCUUCUACUGUCCCGUUACUUUUUGUUGUGUUGU
With B1, the binding result with UNC-75(1-114) RRM1 was “no binding”; with UNC-75(121-213) RRM2, “no binding”; in the series with UNC-75, “binds”; with UNC-75(417-514) RRM3, “binds”; with UNC-75(L431F) it was “no binding”.

B2: Probe 2-1-1b (ssRNA)
RNA: GGGAGAUUAGCACGCAAAAAAAUUCUACUGUCCCGUUACUUUUUGUUGUGUUGU
On to B2, for which the binding result with UNC-75 and in the series with UNC-75(417-514) RRM3 was “binds” each time.

B3: Probe 2-1-1c (ssRNA)
RNA: GGGAGAUUAGCACGCACCCGCCUUAUAAUAUCCCGUUACUUUUUGUUGUGUUGU
For B3, the binding result with UNC-75 and with UNC-75(417-514) RRM3 was “binds” in each case.

B4: Probe 2-1-1a (ssRNA)
RNA: GGGAGAUUAAAAAAAACCCGCCUUCUACUGUCCCGUUACUUUUUGUUGUGUUGU
Take B4: the binding result with UNC-75 and in the series with UNC-75(417-514) RRM3 was “binds” throughout.

B5: Probe 2-1-1d (ssRNA)
RNA: GGGAGAUUAGCACGCACCCGCCUUCUACUGUAAAAUUAAUUUUUGUUGUGUUGU
As to B5, the binding result in the series with UNC-75 and with UNC-75(417-514) RRM3 was “binds” in each case.

B6: Probe 2-1-1e (ssRNA)
RNA: GGGAGAUUAGCACGCACCCGCCUUCUACUGUCCCGUUACUUUUUAUUAUAUUAU
Regarding B6, the binding result with UNC-75 and with UNC-75(417-514) RRM3 was “no binding” each time.
